Drawing on patent publication US20250195677A1, this text covers Kd for two substances.

In this assay the target is recombinant His-tagged cynomolgus PD-1 (Acro Biosystems) (cynomolgus) (UniProt B0LAJ3). Description: SPR Carterra LSA, antibody coupled.
Sequence of recombinant His-tagged cynomolgus PD-1 (Acro Biosystems) (cynomolgus) (B0LAJ3 entry or part of it limits assumed): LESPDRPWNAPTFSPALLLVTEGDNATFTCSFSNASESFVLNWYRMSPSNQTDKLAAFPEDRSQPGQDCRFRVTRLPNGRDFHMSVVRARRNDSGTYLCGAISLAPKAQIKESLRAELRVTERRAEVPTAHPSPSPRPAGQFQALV

A word on the Kd: it is the constant that tells how readily two partners part at equilibrium. As to KEYTRUDA® (pembrolizumab) (antibody), the Kd was 0.575 nM. For OPDIVO® (nivolumab) (antibody), the Kd came out at 6.4 nM.
